Reference: patent US20190160028

Target: His-tagged DENV2 NS2B protein (His-NS2B) (aa 48-95)

B1: His-tagged maltose-binding protein (MBP) fused to DENV2 NS3 protein (His-MBP-NS3) (protein)
chain: AGVLWDVPSPPPMGKAELEDGAYRIKQKGILGYSQIGAGVYKEGTFHTMWHVTRGAVLMHKGKRIEPSWADVKKDLISYGGGWKLEGEWKEGEEVQVLALEPGKNPRAVQTKPGLFKTNAGTIGAVSLDFSPGTSGSPIIDKKGKVVGLYGNGVVTRSGAYVSAIAQTEKSIEDNPEIE
- transactivation (protease activity, Abz substrate at 200 µM; NS3 150 nM, NS2B 1 µM): Both soluble MBP-NS3 fusion protein and refolded NS3 can be trans-activated by soluble His-NS2B, and have similar activities

B2: refolded His-NS3 (protein)
chain: B1 chain
- transactivation (protease activity, Abz substrate at 200 µM; NS3 150 nM, NS2B 1 µM): Both soluble MBP-NS3 fusion protein and refolded NS3 can be trans-activated by soluble His-NS2B, and have similar activities
